Laboratory results from PMC6517596.

Target: KLF4 (Homo sapiens) (UniProt O43474)
Assay: DPI-ELISA competition
Conditions: KLF4 0-150 ng against 80 ng Sp1; 2 pmol DNA; EMSA: 2 ug nuclear extract or 50 ng KLF4, 30 min on ice, 6% native PAGE; DPI-ELISA: 2 pmol biotin-DNA, 2 h; buffer, salt and pH not stated

Chain of UniProt O43474 (O43474 whole entry): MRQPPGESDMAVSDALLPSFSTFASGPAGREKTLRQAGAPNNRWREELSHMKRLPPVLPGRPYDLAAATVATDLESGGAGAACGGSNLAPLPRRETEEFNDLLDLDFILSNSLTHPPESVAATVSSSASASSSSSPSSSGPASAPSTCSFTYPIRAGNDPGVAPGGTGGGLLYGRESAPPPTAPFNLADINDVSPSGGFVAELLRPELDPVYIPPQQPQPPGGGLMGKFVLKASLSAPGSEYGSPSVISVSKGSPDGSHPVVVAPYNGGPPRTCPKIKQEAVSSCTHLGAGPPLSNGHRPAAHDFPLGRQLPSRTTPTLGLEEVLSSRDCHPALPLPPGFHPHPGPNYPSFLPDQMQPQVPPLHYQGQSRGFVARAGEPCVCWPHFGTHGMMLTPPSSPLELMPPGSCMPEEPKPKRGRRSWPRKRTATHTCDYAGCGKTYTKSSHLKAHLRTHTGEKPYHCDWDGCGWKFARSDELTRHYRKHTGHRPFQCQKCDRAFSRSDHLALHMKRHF

“GGTCCCAGAGCACGAGCCCCCGCCCCCGGTGGCCCC (double strand) [CPI-17 GC box 2 biotinylated]” was tested, and the IC50 was 29 ng.
